Laboratory results reported in US9549967B2, “Regulation of sodium channels by PLUNC proteins” (The University of North Carolina at Chapel Hill, priority 2009, dated 2017).

Columns and labels:
[1] = test system: serine proteases; assay: Endogenous protease activity (BGAR-MCA cleavage) on mucosal surfaces of human bronchial epithelial cultures; type: cell-based
Protocol: For cell-free assays, reactions were carried out in 50 μl Ringer in a 96 well plate format with 100 μM BGAR-MCA. To measure endogenous protease activity in human bronchial epithelial cultures, 30 μl Ringer with 100 μM BGAR-MCA were placed directly onto the mucosal surfaces of human bronchial epithelial cultures grown on 12 mm T-clear inserts and the cultures were assayed in 12 well plates.

[2] = target: T1, αR205,231Kβ, γR138K ENaC mutant (Rattus norvegicus, UniProt P37089+P37090+P37091, R138K/R205K/R231K); assay: Oocyte current of furin-insensitive ENaC mutant; type: cell-based; conditions: co-expression in oocytes
T1 construct: expressed in transfected cells; host or cells: Xenopus laevis oocytes
T1 sequence (P37089 1-698 R205K/R231K): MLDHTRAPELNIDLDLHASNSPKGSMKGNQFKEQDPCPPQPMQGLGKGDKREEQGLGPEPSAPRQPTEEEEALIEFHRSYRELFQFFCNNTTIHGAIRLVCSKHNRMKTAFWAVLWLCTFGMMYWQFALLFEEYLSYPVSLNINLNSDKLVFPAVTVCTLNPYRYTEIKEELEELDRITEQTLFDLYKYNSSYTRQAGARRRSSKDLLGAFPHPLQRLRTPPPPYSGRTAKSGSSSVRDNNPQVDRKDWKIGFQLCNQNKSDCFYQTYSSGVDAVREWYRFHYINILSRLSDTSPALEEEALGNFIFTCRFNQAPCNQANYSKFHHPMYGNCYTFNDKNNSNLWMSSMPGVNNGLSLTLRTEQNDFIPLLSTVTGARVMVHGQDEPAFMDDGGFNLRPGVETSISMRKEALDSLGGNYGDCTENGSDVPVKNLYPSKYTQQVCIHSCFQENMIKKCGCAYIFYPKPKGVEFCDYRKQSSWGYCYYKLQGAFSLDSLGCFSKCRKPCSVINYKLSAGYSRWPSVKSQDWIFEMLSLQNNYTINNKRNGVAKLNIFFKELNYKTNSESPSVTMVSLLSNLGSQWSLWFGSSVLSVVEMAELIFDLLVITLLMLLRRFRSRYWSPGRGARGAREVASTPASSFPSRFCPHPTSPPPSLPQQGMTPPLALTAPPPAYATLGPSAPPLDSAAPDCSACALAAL
T1 sequence (P37090 1-638): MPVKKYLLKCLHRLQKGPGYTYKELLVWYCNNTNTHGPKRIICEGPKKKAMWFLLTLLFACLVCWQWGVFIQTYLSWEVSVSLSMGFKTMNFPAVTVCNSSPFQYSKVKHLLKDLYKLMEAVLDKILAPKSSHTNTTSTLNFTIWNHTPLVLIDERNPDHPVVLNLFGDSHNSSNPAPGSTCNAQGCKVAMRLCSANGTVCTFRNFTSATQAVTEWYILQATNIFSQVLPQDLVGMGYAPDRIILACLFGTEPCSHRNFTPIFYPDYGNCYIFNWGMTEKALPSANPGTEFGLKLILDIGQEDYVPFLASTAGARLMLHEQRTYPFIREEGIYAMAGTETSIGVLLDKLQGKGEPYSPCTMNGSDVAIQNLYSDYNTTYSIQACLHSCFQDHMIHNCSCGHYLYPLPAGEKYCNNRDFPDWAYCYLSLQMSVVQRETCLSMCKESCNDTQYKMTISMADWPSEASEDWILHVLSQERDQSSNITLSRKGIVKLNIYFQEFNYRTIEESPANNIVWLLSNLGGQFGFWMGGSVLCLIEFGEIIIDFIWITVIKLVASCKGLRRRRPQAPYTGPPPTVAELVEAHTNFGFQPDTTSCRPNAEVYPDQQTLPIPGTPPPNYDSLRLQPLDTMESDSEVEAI
T1 sequence (P37091 1-650 R138K): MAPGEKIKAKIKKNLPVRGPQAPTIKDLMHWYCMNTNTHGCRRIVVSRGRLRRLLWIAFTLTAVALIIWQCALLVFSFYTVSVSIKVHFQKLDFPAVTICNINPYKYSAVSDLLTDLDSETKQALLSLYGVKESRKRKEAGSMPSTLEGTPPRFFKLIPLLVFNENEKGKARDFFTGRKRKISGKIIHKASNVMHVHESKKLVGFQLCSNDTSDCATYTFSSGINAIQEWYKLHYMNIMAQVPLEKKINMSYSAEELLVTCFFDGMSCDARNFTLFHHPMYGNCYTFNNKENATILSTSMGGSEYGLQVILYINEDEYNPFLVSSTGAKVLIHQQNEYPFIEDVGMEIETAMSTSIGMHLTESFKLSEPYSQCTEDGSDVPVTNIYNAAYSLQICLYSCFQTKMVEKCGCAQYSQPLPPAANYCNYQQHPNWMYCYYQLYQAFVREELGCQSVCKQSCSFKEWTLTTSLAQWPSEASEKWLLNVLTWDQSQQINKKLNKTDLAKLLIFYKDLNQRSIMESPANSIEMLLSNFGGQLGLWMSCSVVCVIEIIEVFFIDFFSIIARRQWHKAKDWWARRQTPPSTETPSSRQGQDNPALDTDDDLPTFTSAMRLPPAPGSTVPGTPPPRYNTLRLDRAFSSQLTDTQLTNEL
Protocol: Oocyte studies. Xenopus laevis oocytes were harvested and injected as described (Donaldson, et al., J. Biol. Chem. 277:8338 (2002)). Defolliculated healthy stage V-VI oocytes were injected with 0.3 ng of cRNA of each ENaC subunit. Injected oocytes were kept in modified Barth's saline (in mM: 88 NaCl, 1 KCl, 2.4 NaHCO3, 0.3 Ca(NO3)2, 0.41 CaCl2, 0.82 MgSO4, and 15 HEPES, adjusted to pH 7.35 with Tris). Oocytes were studied 24 hr after injection using the two electrode voltage clamp technique as previously described (Donaldson, et al., J. Biol. Chem. 277:8338 (2002)). Oocytes were clamped at a holding potential of […]. The change in amiloride-sensitive whole cell current as an indicator of ENaC activity was determined by subtracting the corresponding current value measured in the presence of 10 μM amiloride from that measured before the application of amiloride.

B1: SPLUNC1: human SPLUNC1, 256 amino acid secreted PLUNC protein (SEQ ID NO:1); rSPLUNC1 = V5/6His-tagged protein purified from HEK293 media (protein, listed as Homo sapiens)
chain: MFQTGGLIVFYGLLAQTMAQFGGLPVPLDQTLPLNVNPALPLSPTGLAGSLTNALSNGLLSGGLLGILENLPLLDILKPGGGTSGGLLGGLLGKVTSVIPGLNNIIDIKVTDPQLLELGLVQSPDGHRLYVTIPLGIKLQVNTPLVGASLLRLAVKLDITAEILAVRDKQERIHLVLGDCTHSPGSLQISLLDGLGPLPIQGLLDSLTGILNKVLPELVQGNVCPLVNEVLRGLDITLVHDIVNMLIHGLQFVIKV
modifications: V5/6His tag
notes: rSPLUNC1 = V5/6His-tagged protein purified from HEK293 media
spontaneous BGAR-MCA cleavage on mucosal surfaces [1]: no significant affect | inhibition of furin-insensitive ENaC mutant [2]: inhibited
